How the values were obtained:
Assay in all cases: IEDB peptide-MHC binding, purified MHC/competitive/radioactivity; ≥ and ≤ were set here for values at or beyond the usual limits of such assays
Settings in all cases: source organism: Bordetella pertussis
HLA-B*35:01 = molecular target: HLA-B*35:01
HLA-B*44:03 = molecular target: HLA-B*44:03
HLA-B*07:02 = molecular target: HLA-B*07:02
HLA-B*57:01 = molecular target: HLA-B*57:01
HLA-B*53:01 = molecular target: HLA-B*53:01

Sequence	IC50 (HLA-B*35:01)	IC50 (HLA-B*44:03)	other results
VIGACTSPY	62.6 µM		
YSTGDLRAY	31.4 µM		
PFIIKLKDC	11.6 µM		
PLPPRPVVA		55.9 µM	
GEIALGDAT		15.6 µM	
LPPRPVVAE			IC50 (HLA-B*07:02): ≥ 77.5 µM
KAKSLTTEI			IC50 (HLA-B*57:01): ≥ 70.4 µM
YALKSRIAL	19.3 µM		
VARLVKLQG			IC50 (HLA-B*57:01): ≥ 70.4 µM
KEVDGIIQE		39.1 µM	
HADWNNQSI			IC50 (HLA-B*53:01): 12.4 µM
TPLPVSLTA	0.209 µM		IC50 (HLA-B*53:01): 11.8 µM
YEVTPTRML		19 µM	
